This note sets out measurements from patent publication US20120204273A1, “COMPOSITIONS RELATING TO A PHOSPHOPROTEIN AND METHODS OF USE” (SANFORD-BURNHAM MEDICAL RESEARCH INSTITUTE, priority 2010, published 2012).

Assay [1] concerns PC12 cells. Put plainly: NGF-induced neurite outgrowth in PC12 cells. Format: cell-based. As for the experimental part: FIG. 13, panels A and B, show the expression pattern of CDP138 in various tissues and the effects of overexpressed wild-type and mutant CDP138 in neuronal growth factor (NGF)-induced neurite outgrowth in PC12 cells. A: CDP138 is highly expressed in the brain and distributed in the neurite and synapse of neuronal cells. 30 μg of total protein was assayed for all tissues, except only 15 μg of total protein from brain tissue was assayed in the immunoblotting of panel A. Exemplary protein distribution of CDP138-mCherry in a PC12 cell is also shown. B: Overexpressed CDP138-WT enhances neurite growth, whereas the CDP138-5DA mutant had the opposite effect.
(§1) In addition to counting the total number of cells that survived, the number of big surviving differentiated neuronal cells were also assessed following 24 hours of starvation. […] This was a 50% increase in the number of big differentiated cells.

The test system of assay [2] is PC12 cells. Put plainly: Survival of differentiated PC12 neuronal cells under serum starvation. Format: cell-based. As to conditions: for cell death / survival after 24 hours of starvation / cell death within 14 hours of starvation: transfected 24 h, NGF 24 h, serum starved. As for the experimental part:
Cells were serum starved for 6 hours (6 H), 14 hours (14 H) or 24 hours (24 H) before counting the number of cells in two wells.
Cells were serum starved for 24 hours before counting the number of bid surviving differentiated neuronal cells in two wells.
In order to determine the affects of CDP138 of neuronal cell survival, PC12 cells were transfected with wild-type CDP138-WT vector, dominant negative mutant CDP138-5DA vector or an empty vector for 24 h followed by adding NGF (neuron growth factor) for 24 h. Then cells were serum starved for 6 hours, 14 hour, and 24 hour before counting cell number in 2 wells.
as §1

B1: CDP138-5DA: dominant negative mutant CDP138-5DA vector transfected into PC12 cells (protein, UniProt Q86YS7 1-1000, looked up, variant D19A D26A D76A D78A D84A)
C2 domain-containing protein 5: MPGKLKVKIVAGRHLPVMARASDLTAAFVEVKFGNTTFKTDVYLKSLNPQWNSEWFKFEVDDEDLQDEPLQITVLAHATYSANAAIGKVYIDIDPLLYSEAATVISGWFPIYDTIHGIRGEINVVVKVDLFNDLNRFRQSSCGVKFFCTTSIPKCYRAVIIHGFVEELVVNEDPEYQWIDRIRTPRASNEARQRLISLMSGELQRKIGLKVLEMRGNAVVGYLQCFDLEGESGLVVRAIGTACTLDKLSSPAAFLPACNSPSKEMKEIPFNEDPNPNTHSSGPSTPLKNQTYSFSPSKSYSRQSSSSDTDLSLTPKTGMGSGSAGKEGGPFKALLRQQTQSALEQREFPFFTLTAFPPGFLVHVGGVVSARSVKLLDRIHNPDEPETRDAWWAEIRQEIKSHAKALGCHAVVGYSESTSICEEVCILSASGTAAVLNPRFLQDGTVEGCLEQRLEENLPTRCGFCHIPYDELNMPFPAHLTYCYNCRKQKVPDVLFTTIDLPTDATVIGKGCLIQARLCRLKKKAQAEANATAISNLLPFMEYEVHTQLMNKLKLKGMNALFGLRIQITVGENMLMGLASATGVYLAALPTPGGIQIAGKTPNDGSYEQHISHMQKKINDTIAKNKELYEINPPEISEEIIGSPIPEPRQRSRLLRSQSESSDEVTELDLSHGKKDAFVLEIDDTDAMEDVHSLLTDVPPPSGFYSCNTEIMPGINNWTSEIQMFTSVRVIRLSSLNLTNQALNKNFNDLCENLLKSLYFKLRSMIPCCLCHVNFTVSLPEDELIQVTVTAVAITFDKNQALQTTKTPVEKSLQRASTDNEELLQFPLELCSDSLPSHPFPPAKAMTVEKASPVGDGNFRNRSAPPCANSTVGVVKMTPLSFIPGAKITKYLGIINMFFIRETTSLREEGGVSGFLHAFIAEVFAMVRAHVAALGGNAVVSYIMKQCVFMENPNKNQAQCLINVSGDAVVFVRESDLEVVSSQQPTTNCQSSCTEGEVTT
Regarding B1, the “increase in cell body length (fold over cell body length, NGF-induced neurite outgrowth)” value in the assay with PC12 cells [1] was “approximately 1 fold”. Moreover, in the assay with PC12 cells [2] (24 hours of starvation), the “number of big differentiated neuronal cells per well” value is reported as “did not form any”. Also, in the assay with PC12 cells [2], the “cell death / survival after 24 hours of starvation” value is on record as “the highest amount of cell death” and the “cell death within 14 hours of starvation” value is “significant cell death”.

B2: CDP138-WT: wild-type CDP138 vector transfected into PC12 cells (protein, UniProt Q86YS7 1-1000, looked up)
C2 domain-containing protein 5: MPGKLKVKIVAGRHLPVMDRASDLTDAFVEVKFGNTTFKTDVYLKSLNPQWNSEWFKFEVDDEDLQDEPLQITVLDHDTYSANDAIGKVYIDIDPLLYSEAATVISGWFPIYDTIHGIRGEINVVVKVDLFNDLNRFRQSSCGVKFFCTTSIPKCYRAVIIHGFVEELVVNEDPEYQWIDRIRTPRASNEARQRLISLMSGELQRKIGLKVLEMRGNAVVGYLQCFDLEGESGLVVRAIGTACTLDKLSSPAAFLPACNSPSKEMKEIPFNEDPNPNTHSSGPSTPLKNQTYSFSPSKSYSRQSSSSDTDLSLTPKTGMGSGSAGKEGGPFKALLRQQTQSALEQREFPFFTLTAFPPGFLVHVGGVVSARSVKLLDRIHNPDEPETRDAWWAEIRQEIKSHAKALGCHAVVGYSESTSICEEVCILSASGTAAVLNPRFLQDGTVEGCLEQRLEENLPTRCGFCHIPYDELNMPFPAHLTYCYNCRKQKVPDVLFTTIDLPTDATVIGKGCLIQARLCRLKKKAQAEANATAISNLLPFMEYEVHTQLMNKLKLKGMNALFGLRIQITVGENMLMGLASATGVYLAALPTPGGIQIAGKTPNDGSYEQHISHMQKKINDTIAKNKELYEINPPEISEEIIGSPIPEPRQRSRLLRSQSESSDEVTELDLSHGKKDAFVLEIDDTDAMEDVHSLLTDVPPPSGFYSCNTEIMPGINNWTSEIQMFTSVRVIRLSSLNLTNQALNKNFNDLCENLLKSLYFKLRSMIPCCLCHVNFTVSLPEDELIQVTVTAVAITFDKNQALQTTKTPVEKSLQRASTDNEELLQFPLELCSDSLPSHPFPPAKAMTVEKASPVGDGNFRNRSAPPCANSTVGVVKMTPLSFIPGAKITKYLGIINMFFIRETTSLREEGGVSGFLHAFIAEVFAMVRAHVAALGGNAVVSYIMKQCVFMENPNKNQAQCLINVSGDAVVFVRESDLEVVSSQQPTTNCQSSCTEGEVTT
In the case of B2, in the assay on PC12 cells [1], the “increase in cell body length (fold over cell body length, NGF-induced neurite outgrowth)” value is on record as roughly 4 fold. Also, in the assay with PC12 cells [2] (24 hours of starvation), the “increase in the number of big differentiated cells over empty vector” value worked out at 50% and the “number of big differentiated neuronal cells per well” value was “approximately 1650 per well”. In the assay on PC12 cells [2], the “cell death / survival after 24 hours of starvation” value is given as “continued to survive” and the “cell death within 14 hours of starvation” value is listed as “no appreciable cell death”.
